The source of these data is publication PMC10150958, “Combination of anti-C1qA08 and anti-mCRP a.a.35-47 antibodies is associated with renal prognosis of patients with lupus nephritis” (Frontiers in Immunology, 2023).

The labels stand for the following.
B2: monomeric CRP (mCRP) (natural protein, UniProt P02741 19-224, looked up)
chain: QTDMSRKAFVFPKESDTSYVSLKAPLTKPLKAFTVCLHFYTELSSTRGYSIFSYATKRQDNEILIFWSKDIGYSFTVGGSEILFEVPEVTVAPVHICTSWESASGIVEFWVDGKPRVRKSLKKGYTVGAEASIILGQEQDSFGGNFEGSQSLVGDIGNVNMWDFVLSPDEINTIYLGGPFSPNVLNWRALKYEVQGEVFTKPQLWP
notes: C-reactive protein, monomeric (dissociated, denatured) form; Same protein in all assays: purified mCRP in solution or coated on plates; for SPR with the C1q peptides pentameric CRP was coupled to the chip and turned into mCRP by urea/EDTA, because mCRP precipitated in acetate buffer; also called monomeric C-reactive protein; urea-denatured mCRP; source: urea-denatured mCRP on the microplate; on …

The assay “monomeric CRP (mCRP)” concerns the target B2. The assay can be described thus: SPR; Biacore T200; CRP immobilised on a CM5 chip and denatured to mCRP by 200 s of 8 M urea and 5 mM EDTA; peptides A08, B78, A08-C injected at 30 μl/min in PBS with 0.05% P-20. Particulars: both partners purified.
The target in assay [1] is T1, human complement component C1q (human, UniProt P02745 23-245; P02746 28-253; P02747 29-245).
T1 construct: complement C1q, A chain, human; complement C1q, B chain, human; complement C1q, C chain, human; also called human C1q; copies: 6 + 6 + 6
The assay can be described thus: SPR; Biacore T200; C1q coupled to a CM5 chip; mCRP or peptides a.a.35-47, a.a.199-206 injected at 30 μl/min in PBS with 0.05% P-20; steady-state curve for a.a.35-47. Particulars: both partners purified.

T1 sequence (P02745 23-245, chain 1 of 3): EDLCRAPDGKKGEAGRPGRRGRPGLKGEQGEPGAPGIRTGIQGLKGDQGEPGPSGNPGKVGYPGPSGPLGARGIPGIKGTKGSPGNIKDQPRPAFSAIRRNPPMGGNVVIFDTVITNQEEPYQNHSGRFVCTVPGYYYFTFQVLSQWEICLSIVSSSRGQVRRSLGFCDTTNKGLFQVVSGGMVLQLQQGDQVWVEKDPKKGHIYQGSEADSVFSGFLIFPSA
T1 sequence (P02746 28-253, chain 2 of 3): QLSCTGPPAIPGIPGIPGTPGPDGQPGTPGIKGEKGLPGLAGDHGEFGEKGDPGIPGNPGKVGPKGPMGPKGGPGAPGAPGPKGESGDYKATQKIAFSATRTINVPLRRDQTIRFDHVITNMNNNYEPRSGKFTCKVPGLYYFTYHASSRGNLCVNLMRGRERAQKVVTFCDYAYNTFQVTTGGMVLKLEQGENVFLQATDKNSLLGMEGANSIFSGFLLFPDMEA
T1 sequence (P02747 29-245, chain 3 of 3): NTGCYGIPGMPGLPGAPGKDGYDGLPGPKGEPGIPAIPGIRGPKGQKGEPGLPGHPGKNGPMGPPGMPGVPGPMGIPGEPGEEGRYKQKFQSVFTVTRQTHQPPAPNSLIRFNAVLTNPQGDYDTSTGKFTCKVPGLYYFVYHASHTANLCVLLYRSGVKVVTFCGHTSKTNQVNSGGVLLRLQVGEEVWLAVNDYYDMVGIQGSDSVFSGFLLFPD

B1: peptide B78 (peptide)
peptide: PGKVGPKGPMGPK
notes: peptide from the collagen like region (CLR) of the C1q-B chain; Biotinylated and nonbiotinylated peptides were synthesized; source: synthetic peptide (GenScript, >95% purity)
Turning to B1, in the assay with monomeric CRP (mCRP), the affinity, expressed as Kd, was 3500 µM.
B2: the Kd in assay [1] was found to be 0.0737 nM.

B3: peptide 199-206 of mCRP (peptide)
peptide: FTKPQLWP
notes: peptide 199-206 derived from mCRP (C-reactive protein); Biotinylated and nonbiotinylated peptides were synthesized; also called a.a.199-206; source: synthetic peptide (GenScript, >95% purity)
For B3, in assay [1], the Kd is 890000 nM.

B4: peptide A08 (peptide)
peptide: GRPGRRGRPGLKG
notes: peptide from the collagen like region (CLR) of the C1q-A chain; Biotinylated and nonbiotinylated peptides were synthesized; also called C1qA08; source: synthetic peptide (GenScript, >95% purity)
In the assay with monomeric CRP (mCRP), B4 yielded a Kd of 4.7 µM.

B5: peptide 35-47 of mCRP (peptide)
peptide: VCLHFYTELSSTR
notes: peptide 35-47 derived from mCRP (C-reactive protein); Biotinylated and nonbiotinylated peptides were synthesized; also called a.a.35-47; mCRP a.a.35-47; source: synthetic peptide (GenScript, >95% purity)
Take B5: in assay [1], the dissociation constant Kd was 2940 nM.
